Measured values: the supplement of paper PMC9170038

test system: K4 kissing-loop RNA reporter; assay: apparent KD of K4 kissing-loop reporter; higher = weaker reporter binding; details: Eterna round: R107; input ligand: FMN 200 uM
Experimental: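 RNA-MaP round R107: designed RNA switches with theophylline, tryptophan, arginine or FMN aptamers are transcribed on-chip within common flanks. They are titrated with a labelled K4 kissing-loop RNA reporter in RNA-MaP buffer (100 mM Tris pH 7.5, 80 mM KCl, 4 mM MgCl2), without ligand or with the indicated ligand. Median apparent KD per design.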
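Also: bound reporter read as fluorescence of individual clusters on recovered sequencing chips by microscopy, with normalized cluster intensities fitted with a binding model.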

Sequence	apparent KD of K4 kissing-loop reporter [µM]
GGAUAGGAUAGAGGAUAUGGACUAGGCAAGAAUAACUUGUCUAGUAAAUCCAUGAGGAGUGAUGUUCCAGAAGGCUGUCCUAUCG [MatMod 3 - Jieux - Exclusion - FMN B]	0.514
AAAUAAUAAAUGCAGCCAGUGAUGUUGGAAGGAGCGUGCGAAAGCACAGGUAGGUCGCCAACCAAAGCUGGAAACAGCAACUGCA [#SwitchBubble 3 #K4Early]	0.226
ACAGAUUGAUUGAUUCACUUUGUAGCUGCGAAGGAUAUUAAGACGCUAAGAAGGUCGCUUAAGGGUAGUGAUGUUACCUUUUGAG [theeternabot_sameState_KL_FMN_A_27]	0.0573
UUGGAAAUCAGAAGGAGCGUCUAAAAUAAGAGAACCAGUGAUGUUGGUUUUAUUUAAUGAAGACAGGUAGGUCGCUGAAUUUUUA [Same State Arginie B GF 19]	0.1
CUCCAACUUGAUGAUACCAGAGAGGAGGAAGUGAUGUUGACUCCGGCUACAUACUGGCGACUCCCUUGGCAGCAUUACGUCAUCC [theeternabot_sameState_KL_Theo_B_3]	0.389
AGGCACGAGCAAGGAUAUUGAGUAGAGUGAUGUUCUGCCUAAGUUGGCUCGAAAGAGCCUUCUUAGCGAGAAGGUGCUCGUGCCU [#2 Same State - FMN A Attempt #26 (HarryS)]	0.297
CCUUCUCUUGAUAGUGAUGUUGUCAAGGGCAAGGAUAUCAUCUUAAUGAGAAGGUGUCCUUGAUAACAUGGAGGUCUGAAACAGA [Omei KL FMN A Exc C v7]	0.123
CGUUCUUCUGUCGAUACCAGCUUCAGUUGGCGGCCAGUGAUGUUGGUAUCGCCGAUGCCAAGCCCUUGGCAGCGACAUGAGACCC [Onrire]	0.171
AAAAUAAAUCAGUGAUGUUGGUAUCCGGAUACCAGCGAUAAUCAUCGCCCUUGGCAGCCGCGGACGUACAAAAUAAGUACGUCCU [MatMod 15 - Jieux - Same State - Theophylline A]	0.282
GACUGGUUAACGAGUGAUGUUCGAUGGGAAGGAGCGCGCAGAAGUGCAGGUAGGUCGCCCUAUAACCAGGAAAUGGCUGGAUUAU [3.)]	0.205
GGUUUAUAGGAGGAUACCAGUACGAAUAAAGUACAUUAAUAGUAGAGUGAUGUUCUAAAGUACCCUUGGCAGCUUAGAUUAAGUU [ExTheophylB.H]	0.102
AAAGUUGCAAGUGAUACCAGACGAGUGAAGGGAAGUAAUUAAUUAGGAGUGAUGUUCCGCGUCCCUUGGCAGCACUUUGUAAUUU [Exclusion Theophylline B GF 25]	0.155
UGAUACCAGACGGCCGCCACUAGGACCGGGAGUGAUGUUCCAAAAUUAAAAUACUCGGCCGCCACUAGGACCGGGUCUGGUAUCU [TrypBX 25 #DoubleAptamer #SwitchBubble]	0.225
AUUUAUUCGUACUACUAGUGAUGUUAGUAACGAGGACCGGUACGGCCGCCACUCGAUUUGGCGAUUUUGUAUUUUUUAUUCUAUA [JR_SSTryptoA_Sub011]	0.324
GCCGUACGCAUGGAUACCAGUCUUUCGCGACUGGACAUGGAGUGAUGUUUCGUGAUGCUAGACCCUUGGCAGCCAUGCGUACGGC	0.233
GAAUAAUAACAUGAGUGAUGUUCAUGUAAACGAGGACCGGUACGGCCGCCACUCGUUUCUCAUGUAAGCCGUACCAAUAACAAUA [KL-XTryp-A5 #analogue]	0.146
UUCAUCGUGGUUCACGGGUGGUAUGAAACGCGAGGACCGGUACGGCCGCCACUCGGUUCCGCUUGUUGAGUGAUGUUCAAUAUUU	0.239
AGGUCCGAGCCCGGAAGGGCUCGGACCUGUUAGGAUAUGACGUGAUUCAGAAGGGAUGGGUGGAGUGAUGUUCCACCCGAGAGGG [#2 Same State - FMN A Attempt #20 (HarryS)]	0.105
UUUAUUAAGACGGCCGCCACUGAAUUAGAGUGAUGUUCUAAAAUUACUAAAUUAAAUUUAUUCAACAGGACCGGGUCAAUUAUUA [JR_SSTryptoB_Sub010]	0.399
GGCAGUGAUGUUGCCUAAGCAACGCAUGCGGAGGAUAUUCGUUCGGGAAGAAGGCCGCAGCGUUCUCUCGCGAGUGAUGUUCGCA [Same State FMN A GF 22]	0.158
GGCCACGGGCGAGGAUAUGGGCAUGAUUCAUCCUGGAGUGAUGUUCCAGGUCCUACGUUUCUAGCACCAGAAGGCGUUUGUUGCU [Enistein]	0.131
AAACAUCACUGGGAGUGAUGUUCUCAGUGACGAGGACCGGUACGGCCGCCACUCGCGAGAGAUAUAAAUAAGUAAUGACAUCAUU [Excl Tryptophan A V1]	0.359

Sequence	apparent KD of K4 kissing-loop reporter [µM]
AUGUAUGAAUUAGGAUAUCGUGAGCUUUGCAUAUAUAUGAUAAAUGGAUAUGUCGUAGUGAUGUUACGAGAAGGAGUGUGGAGUA [KL-XFMN-B3]	0.0524
GCCAGUGAUGUUGGCGAACCAACGCAUGCAGAGGAUAUUCGUUCUGGAAGAAGGCUGCAGCGUUAUCAAACGCAGUGAUGUUGCG [Same State FMN A GF 26]	0.179
AGCGUCUGAAGAGGAUAUGACCAGUGAUGUUGGUUACUACCUCAAAUUAGUGUCGCGCCAAAAUCGUCAGAAGGCUUCGGCGCGC [Ussoes]	0.135
UGGAUAUAGUGAUGUUAUAUAGAGAUGGAUACCAGCGAAGAGAAUUGCCCUUGGCAGCCGAAAGCAGUAUCAUUAGAGAAGAAUG [#19 K4 Theophylline A Exclusion]	0.291
GCAGACACGCAGUGAUGUUGCGAAACGGAAGGAGCGCGUGAAAACGCAGGUAGGUCGCCGACACAUUAAUUAUAAUUUUGUUUGC [Arginine A K4 15]	0.279
ACUACGAAGACGGCCGCCACUGAUAUUCGUAGAUCCAUCAUUGCAUGAGUGAUGUUCAUGUAUAUCAGGACCGGGUCAAGAUGGU [KL-XTryp-B18 #analogue]	0.295
CUGCCGUGCCAUGGGCCAGUGAUGUUGGAACGAGGACCGGUACGGCCGCCACUCGCUUAGCGUCAAAGGCGUCCCGAAUAGAAAG [theeternabot_exclusion_KL_Trp_A_14]	0.374
CGCAGUGAUGUUGCGAAUAUAAUAACGGAAGGAGCGCGUGAAAACGCAGGUAGGUCGCCGUUUGGUAUGAUGGAAACAUCGUACC [Arginine A K4 11]	0.135
UGCACGGGCUCGGCCGCCACUCCCGCGGGUCGAAAGGUCCGCUACUGAGUGAUGUUCGGUUGGAGGAGGACCGGGAGCCCGUGCA [#2 Exclusion - Tryptophan B Attempt #24 (HarryS)]	0.0956
AAAUAGAUCAGUCAUCCAGUGAUGUUGGAAGGAGCGUGCGAAAGCACAGGUAGGUCGCCAAAAUAAAAGUGGCUGAUCAAAAUAA	0.629
AAGUGAUGUUGUAGUGAUGUUGUGAUGUUGCAGGAUAUAUAGUGAUGUAGAAGGGUAUGUGCAGUGUUGUUGUUUGAGUGUUCAU [dttyumullin]	0.0954
CGAGCGGAGUGAUGUUCCGUGCCAGCAGAUACCAGAUUGAAAGAGAUCCCUUGGCAGCUGCGUCACACCCUUACGUGAUAGGACC [theeternabot_sameState_KL_Theo_A_32]	0.244
AUUAAUUUCAGAGGAUAUCGUAAUUUUAUUUAAUUUAUUCAUUUGUGCAGUGAUGUUGCUAAUAUUCGAGAAGGCUGAUUUAUAA [whbob_Ex_FMNB__2th223]	0.142
UAUUGCCACAGAGUGAUGUUCUGGCCGGAUACCAGCAUGCAAUUAUGCCCUUGGCAGCCGGAUGCGCGUCCAGCCACCGGGCCUG [theeternabot_exclusion_KL_Theo_A_29]	1.51
GGGAGUAGUGCGGCCGCCACUGAGAAAGAAGAAGAAUAUAGUGAUGUUAUAUAGGAAUUAAAGAACAGGACCGGGCAUUAGAUUU [SSTRyptB.O]	0.21
CAUAGGAAACUAUGUUCCUCUCUUACUGAAGGAGCGCGUGAAAACGCAGGUAGGUCGCAGGAUUUGAGAGUGAUGUUCUCAUUAA [Ex Arginine A K4 15]	0.16
UGAUAGGACAGAAGGAGCGGUAGUGAUGUUACCAAAAGGCUAAGGUGUCAAAAGACACCCUACCAGGUAGGUCGCUGUCCUAUCU	0.131
UGUACCGAGUCAGGAUAUGGCGUCGAAAGACGAAUCGUAGUGAUGUUACGGAUCUGCGAAAGCAGUCCAGAAGGGACUUGGUACU [FmnBS 26 G37+C49]	0.125
ACUAGAAAACCAGUGAUGUUGGCCUGGGAUACCAGCUUCUAUUAUAGCCCUUGGCAGCCCUUUAGUACAAGUGACCUUGCGACCG [theeternabot_sameState_KL_Theo_A_9]	0.299
UCUAAGGUCGAACCGGUAUGAUCACCGGAUACCAGAGGCGAAAGCCUCCCUUGGCAGCCGAGUGUAGUGAUGUUACACGGGUUCU	0.166
AUUGCACCUGCGGCCGCCACUCACUCCGGGCUGCUGGCCAGUGAUGUUGGUACGGCUGCCGGUUAGAGGACCGGGCAGGAGCUAA [Esage]	0.106

same assay, conditions: Eterna round: R107; input ligand: arginine 13.2 mM

Sequence	apparent KD of K4 kissing-loop reporter [µM]
GGAUAGGAUAGAGGAUAUGGACUAGGCAAGAAUAACUUGUCUAGUAAAUCCAUGAGGAGUGAUGUUCCAGAAGGCUGUCCUAUCG [MatMod 3 - Jieux - Exclusion - FMN B]	0.2
AAAUAAUAAAUGCAGCCAGUGAUGUUGGAAGGAGCGUGCGAAAGCACAGGUAGGUCGCCAACCAAAGCUGGAAACAGCAACUGCA [#SwitchBubble 3 #K4Early]	0.129
ACAGAUUGAUUGAUUCACUUUGUAGCUGCGAAGGAUAUUAAGACGCUAAGAAGGUCGCUUAAGGGUAGUGAUGUUACCUUUUGAG [theeternabot_sameState_KL_FMN_A_27]	0.055
UUGGAAAUCAGAAGGAGCGUCUAAAAUAAGAGAACCAGUGAUGUUGGUUUUAUUUAAUGAAGACAGGUAGGUCGCUGAAUUUUUA [Same State Arginie B GF 19]	0.0952
CUCCAACUUGAUGAUACCAGAGAGGAGGAAGUGAUGUUGACUCCGGCUACAUACUGGCGACUCCCUUGGCAGCAUUACGUCAUCC [theeternabot_sameState_KL_Theo_B_3]	0.265
AGGCACGAGCAAGGAUAUUGAGUAGAGUGAUGUUCUGCCUAAGUUGGCUCGAAAGAGCCUUCUUAGCGAGAAGGUGCUCGUGCCU [#2 Same State - FMN A Attempt #26 (HarryS)]	0.534
CCUUCUCUUGAUAGUGAUGUUGUCAAGGGCAAGGAUAUCAUCUUAAUGAGAAGGUGUCCUUGAUAACAUGGAGGUCUGAAACAGA [Omei KL FMN A Exc C v7]	0.305
CGUUCUUCUGUCGAUACCAGCUUCAGUUGGCGGCCAGUGAUGUUGGUAUCGCCGAUGCCAAGCCCUUGGCAGCGACAUGAGACCC [Onrire]	0.18
AAAAUAAAUCAGUGAUGUUGGUAUCCGGAUACCAGCGAUAAUCAUCGCCCUUGGCAGCCGCGGACGUACAAAAUAAGUACGUCCU [MatMod 15 - Jieux - Same State - Theophylline A]	0.0892
GACUGGUUAACGAGUGAUGUUCGAUGGGAAGGAGCGCGCAGAAGUGCAGGUAGGUCGCCCUAUAACCAGGAAAUGGCUGGAUUAU [3.)]	0.224
